Data taken from paper doi:10.1101/738179, “Rad51 Interaction Analysis Reveals a Functional Interplay Among Recombination Auxiliary Factors” (bioRxiv, 2019).

B1: Rad51 (natural protein, S. pombe, UniProt P36601 1-365, looked up)
chain: MADTEVEMQVSAADTNNNENGQAQSNYEYDVNVQDEEDEAAAGPMPLQMLEGNGITASDIKKIHEAGYYTVESIAYTPKRQLLLIKGISEAKADKLLGEASKLVPMGFTTATEYHIRRSELITITTGSKQLDTLLQGGVETGSITELFGEFRTGKSQICHTLAVTCQLPIDMGGGEGKCLYIDTEGTFRPVRLLAVADRYGLNGEEVLDNVAYARAYNADHQLELLQQAANMMSESRFSLLVVDSCTALYRTDFSGRGELSARQMHLARFMRTLQRLADEFGIAVVITNQVVAQVDGISFNPDPKKPIGGNILAHSSTTRLSLRKGRGEQRICKIYDSPCLPESEAIFAINSDGVGDPKEIIAPV
notes: Rad51, RecA-family recombinase of S. pombe; Covalently attached to Affi-gel 15 in the pull-down; Multimer in solution by SEC; also called Affi-Rad51
B2: Swi5-Sfr1 (wild type, full-length Sfr1) (complex, S. pombe)
chain 1: MEKSQLESRVHLLEQQKEQLESSLQDALAKLKNRDAKQTVQKHIDLLHTYNEIRDIALGMIGKVAEHEKCTSVELFDRFGVNGSE
chain 2: MSQTINSELNENATSQCKEDLKVSLSESDLRDSQGQLGIENPPKCNNSGNHSDNLGFIEQSETVHPENEKALTPDLRDTKIHTSLPITTPFSKKRAREAKNILLKPFKSPLRQTASPQVADTNLKPSLAVTNLNSDETNTSSEPVTSPLRTTPNSIKRQKRLFKSPISNCLNPKSDPEITQLLSRRLKLEKEVRNLQEQLITAETARKVEAKNEDKDLQTLIQKWKNAAQQAAEVLFKPMAERIRLAGGVTQSFRIEEGENKGQIQEVRTEFTMSMFLNQFGVPVHLMSFDEENGDWKS

Columns and labels:
[1] = biological target: B2; test: pull-down; Rad51 covalently attached to Affi-gel 15 (2 µg protein/µL gel); Swi5-Sfr1 variant in Affi-gel buffer (25 mM HEPES-KOH pH 7.5, 150 mM NaCl, 3.5 mM MgCl2, 0.5 mM DTT, 0.05 µg/µL BSA, 10% glycerol, 0.05% igepal CA-630); 30 °C 30 min; Sfr1 detected by immunoblot; Affi-BSA as control; conditions: both partners purified
Rad51 = biological target: B1; test: cell-based or functional assay

| binding result [1] | Rad51-dependent ATP turnover, fold increase at a Swi5-Sfr1:Rad51 ratio of 1:20 (0.25 µM Swi5-Sfr1, 5 µM Rad51) (Rad51) [fold] | Binder |
| --- | --- | --- |
| binds | – | B1 |
| – | 1.85 | B2 |
